Experimental data reported in patent publication US20110165066A1 (AbbVie / Abbott, published 2011).
Substitutions are numbered along the chain they refer to. Blank lines part the entries; values can stand above or below the binder they belong to.

Assays:
human IL-13 wild type [1] = target: T1, human IL-13 wild type (human, UniProt P35225 35-146); experiment: blocking of IL-13 binding to IL-13Rα2: cell surface RBA (125I-IL-13, transfected COS cells) and receptor binding ELISA (IL-13Rα2/Fc); native IL-13 in solution; blocking of binding to IL-13Rα2, cell surface RBA and RB ELISA; upper end of range
T1 construct: also called h IL-13; h IL-13 wt
Experimental: (§1) The plates were washed again 5 times with 300 ul 0.1% PBST, followed by addition of TMB substrate reagent (100 ul/well, Pharmingen); developed for 5 min, and stopped by adding 50 ul of 2M H2SO4 (VWR). ODs at 450 nm were determined by spectrophotometry.
(§2) Additionally, the receptor blocking properties of the mAbs were also assessed by receptor binding assay using IL-13Rα2-transfected COS cells. Recombinant human IL-13 was labeled with ¹²⁵I (Amersham, Arlington Heights, Ill.), using IODO-GEN reagent (Pierce, Rockford, Ill.) as previously described (Obiri N I et al., (1995) J Biol Chem. 270:8797-8804). […] For binding experiments, COS cells were transiently transfected with human IL-13Rα2 by Lipofectamine 2000 (Invitrogen), and incubated for 48 hr. Transfected COS cells (5×10^5 cells in 100 μL binding buffer: RPMI 1640 containing 0.2% human serum albumin and 10 mmol HEPES) were incubated with 1.0 nM ¹²⁵I-IL-13 with or without 1 uM unlabeled IL-13 at 4° C. for 2 hours. Cell-bound ¹²⁵I-IL-13 was separated from unbound ¹²⁵I-IL-13 by centrifugation through a phthalate oil gradient, and radioactivity was determined with a gamma counter (Wallac, Gaithersburg, Md.).

cynomolgus IL-13 [2] = target: T2, cynomolgus IL-13 (cynomolgus, UniProt Q0PW92 21-132); experiment: not stated in the sentence (Biacore elsewhere)
T2 construct: also called cyno IL-13; wild type cyno IL-13

[3] = target: T3, human IL-13 variant (R130Q) (human, UniProt P35225 35-146); experiment: not stated in the sentence (Biacore elsewhere)
T3 construct: called R110Q in the assay descriptions (mature numbering); also called h IL-13v; hIL-13v

mouse IL-13 [4] = target: T4, mouse IL-13 (mouse, UniProt P20109 26-131, limits assumed); experiment: indirect ELISA, captured mAb, biotinylated mouse IL-13
T4 construct: also called mIL-13; murine IL-13
T4 sequence (looked up): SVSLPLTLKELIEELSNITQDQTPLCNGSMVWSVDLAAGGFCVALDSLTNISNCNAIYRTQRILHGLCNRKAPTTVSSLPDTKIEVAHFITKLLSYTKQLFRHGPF
Experimental: Murine anti-human IL-13 mAbs were prepared at various concentrations ranging from 0.1 to 100 ng/ml in PBS containing 0.1% BSA; 50 ul of each antibody dilution was added to the coated ELISA plate and incubated for 1 hour at room temperature. Wells were washed 3 times with PBS containing 0.05% Tween-20. […] Wells were washed 3 times with PBS containing 0.05% Tween-20. Streptavidin HRP (Pierce #21126, Rockland, Ill.) was diluted 1:20000 in PBS containing 0.1% BSA; […] was added and the plates incubated for 1 hour at room temperature. Plates were washed 3 times with PBS containing 0.05% Tween-20. Fifty microliters of TMB solution (Sigma # T0440, St. Louis, Mo.) was added to each well and incubated for 10 minutes at room temperature. The reaction was stopped by addition of 1N sulphuric acid. Plates were read spectrophotmetrically at a wavelength of 450 nm.

human IL-13 wild type [5] = target: T1, human IL-13 wild type; experiment: blocking of IL-13 binding to IL-13Rα2: cell surface RBA (125I-IL-13, transfected COS cells) and receptor binding ELISA (IL-13Rα2/Fc); native IL-13 in solution; blocking of binding to IL-13Rα2, cell surface RBA and RB ELISA; lower end of range
Experimental: as §1, §2

cynomolgus IL-13 [6] = target: T2, cynomolgus IL-13; experiment: cell-based or functional assay
human IL-13 wild type [7] = target: T1, human IL-13 wild type; experiment: cell-based or functional assay
[8] = target: T3, human IL-13 variant (R130Q); experiment: cell-based or functional assay
[9] = target: T3, human IL-13 variant (R130Q); experiment: SPR (Biacore), mAb captured, IL-13 as analyte
Experimental: (§3) The BIACORE assay (Biacore, Inc, Piscataway, N.J.) determines the affinity of antibodies with kinetic measurements of on-, off-rate constants. […] All chemicals were obtained from Biacore® AB (Uppsala, Sweden) or otherwise from a different source as described in the text. Approximately 5000 RU of goat anti-mouse IgG, (Fcγ), fragment specific polyclonal antibody (Pierce Biotechnology Inc, Rockford, Ill.) diluted in 10 mM sodium acetate (pH 4.5) was directly immobilized across a CM5 research grade biosensor chip using a standard amine coupling kit according to manufacturer's instructions and procedures at 25 μg/ml. Unreacted moieties on the biosensor surface were blocked with ethanolamine. Modified carboxymethyl dextran surface in flowcell 2 and 4 was used as a reaction surface. Unmodified carboxymethyl dextran without goat anti-mouse IgG in flow cell 1 and 3 was used as the reference surface. For kinetic analysis, rate equations derived from the 1:1 Langmuir binding model were fitted simultaneously to association and dissociation phases of all eight injections (using global fit analysis) with the use of Biaevaluation 4.0.1 software. Purified antibodies were diluted in HEPES-buffered saline for capture across goat anti-mouse IgG specific reaction surfaces. Mouse antibodies to be captured as a ligand (25 μg/ml) were injected over reaction matrices at a flow rate of 5 μl/min. The association and dissociation rate constants, kₒₙ (unit M⁻¹s⁻¹) and koff (unit s⁻¹) were determined under a continuous flow rate of 25 μl/min Rate constants were derived by making kinetic binding measurements at ten different antigen concentrations ranging from 10-200 nM. […] Binding is recorded as a function of time and kinetic rate constants are calculated.

human IL-13 wild type [10] = target: T1, human IL-13 wild type; experiment: SPR (Biacore), mAb captured, IL-13 as analyte; native recombinant human wild-type IL-13, Biacore
Experimental: as §3

mouse IL-13 [11] = target: T4, mouse IL-13; experiment: BIACORE against recombinant mouse IL-13
mouse IL-13 [12] = target: T4, mouse IL-13; experiment: cell-based or functional assay
rhesus IL-13 [13] = target: T5, rhesus IL-13 (rhesus, UniProt Q864V6 21-132, limits assumed); experiment: SPR (Biacore)
Experimental: as §3

cynomolgus IL-13 [14] = target: T2, cynomolgus IL-13; experiment: SPR (Biacore)
Experimental: as §3

human IL-13 wild type [15] = target: T1, human IL-13 wild type; experiment: SPR (Biacore)
Experimental: as §3

rhesus IL-13 [16] = target: T5, rhesus IL-13; experiment: cell-based or functional assay
cynomolgus IL-13 [17] = target: T2, cynomolgus IL-13; experiment: cell-based or functional assay; remark: listed apart in the source
human IL-13 wild type [18] = target: T1, human IL-13 wild type; experiment: cell-based or functional assay; remark: listed apart in the source

T2 sequence (Q0PW92 entry or part of it): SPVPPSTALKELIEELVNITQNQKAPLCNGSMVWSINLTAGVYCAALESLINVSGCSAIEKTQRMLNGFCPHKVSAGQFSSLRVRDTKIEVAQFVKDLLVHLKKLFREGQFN
T3 sequence (P35225 35-146 limits assumed, stated change not applied): as the sequence (Q0PW92 entry or part of it) above, with S1G, K10R, V42M, N67S, R83H, V100L counted along it
T1 sequence (P35225 other isoform, or with tags, fused parts or gaps limits assumed): as the sequence (Q0PW92 entry or part of it) above, with S1G, K10R, V42M, N67S, R83H, V100L, Q110R counted along it
T5 sequence (Q864V6 21-132 limits assumed): as the sequence (Q0PW92 entry or part of it) above, with P5R, Q110R counted along it

B1: 13C5 (antibody, V domains shown)
VH: QVTLKESGPGILQPSQTLSLTCSFSGFSLSTSDMGVDWIRQPSGKGLEWLAHIWWDDVKRYNPALKSRLTISKDTSSSQVFLMLASVDTADTATYYCARTVSSGYIYYAMDYWGQGTSVTVSS
VL: DIQMTQTASSLSASLGDRVTISCRASQDIRNYLNWYQRKPDGTVKLLIFYTSKLHSGVPSRFSGSGSGTDYSLTIRNLEQEDIATYFCQQGNTLPLTFGGGTKLEIKR
notes: also called murine 13C5
IC50 (human IL-13 wild type [1]): 1 to 3 nM | Kd (cynomolgus IL-13 [2]): 1.8 nM | Kd [3]: 0.05 nM | binding result (mouse IL-13 [4]): no binding (tested: 0.1 to 100 ng/ml) | IC50 (human IL-13 wild type [5]): 1 to 3 nM | Average IC50, IL-13-induced TARC production by A-549 cells (cynomolgus IL-13 [6]): 5 nM | Average IC50, IL-13-induced TARC production by A-549 cells (human IL-13 wild type [7]): 0.19 nM | Average IC50, IL-13-induced TARC production by A-549 cells [8]: 0.17 nM | Kd [9]: 0.0759 nM | koff [9]: 4.35e-05 s⁻¹ | kon [9]: 574000 M⁻¹ s⁻¹ | Kd (human IL-13 wild type [10]): 0.0745 nM | koff (human IL-13 wild type [10]): 9.31e-05 s⁻¹ | kon (human IL-13 wild type [10]): 1.25e+06 M⁻¹ s⁻¹

B4: 13C5.5L2EL3F (antibody, V domains shown)
VH: EVTLRESGPGLVKPTQTLTLTCTLYGFSLSTSDMGVDWIRQPPGKGLEWLAHIWWDDVKRYNPALKSRLTISKDTSKNQVVLKLTSVDPVDTATYYCARTVSSGYIYYAMDYWGQGTLVTVSS
VL: DIQMTQSPSSLSASVGDRVTISCRASQDIRNYLNWYQQKPGKAPKLLIFYTSMKPRGVPSRFSGSGSGTDYTLTISSLQPEDIATYYCQQGLTPPLTFGGGTKVEIK
notes: constant regions not restated for this variant
Kd (rhesus IL-13 [13]): 0.13 nM | Kd (cynomolgus IL-13 [14]): 0.32 nM | Kd (human IL-13 wild type [15]): 0.25 nM | Potency (IC50), A-549 bioassay (rhesus IL-13 [16]): 0.26 nM | Potency (IC50), A-549 bioassay (cynomolgus IL-13 [17]): 0.48 nM | Potency (IC50), A-549 bioassay (human IL-13 wild type [18]): 0.12 nM

B5: 13C5.5L2E (antibody, V domains shown)
VH: B4 VH
VL: B4 VL with L92N, P94L
notes: as for B4
Kd (rhesus IL-13 [13]): 0.29 nM | Kd (cynomolgus IL-13 [14]): 0.52 nM | Kd (human IL-13 wild type [15]): 0.12 nM | Potency (IC50), A-549 bioassay (rhesus IL-13 [16]): 0.4 nM | Potency (IC50), A-549 bioassay (cynomolgus IL-13 [17]): 1.2 nM | Potency (IC50), A-549 bioassay (human IL-13 wild type [18]): 0.18 nM

The remaining lines, values ahead:

Kd (mouse IL-13 [11]): 0.145 nM | IC50, A-549 bioassay against recombinant mouse IL-13 (mouse IL-13 [12]): 0.343 nM
B2: 51D9 (antibody, V domains shown)
VH: QIQLVQSGPELKKPGESVKISCKASGYTFTDYAMHWVKQAPGKGLKWMAWINTYTGKPTYADDFKGRFVFSLEASASTATLQISNLKNEDTATYFCARAGRTEGTHYYAMDAWGQGTSVTVSS
VL: DIVLTQSPVLAVSLGQRATISCRASQSVSISSSDLMHWYQQRPGHQPKLLIYRTSNLVSGIPARFSGSGSGTDFTLTIDPVQADDIAAYYCQQGRESPWTFGGGTKLELKR

Kd (mouse IL-13 [11]): 0.105 nM | IC50, A-549 bioassay against recombinant mouse IL-13 (mouse IL-13 [12]): 0.0491 nM
B3: 48D3 (antibody, V domains shown)
VH: EVQLVESGGDLVQPGRSLKLSCAASGFTFSDYYMAWVRQAPTKGLEWVASISNDGISTYYRDSVKGRFTISREKAKSSLYLQMDSLRSEDTATYYCTTWNWEFGFFDYWGQGVMVTVSA
VL: DIVLTQSPALAVSLGQRATISCRASQSVTISRYNRMHWYQQRPGQQPKLLIYRSSYLASGIPARFSGSGSGTDFTLTIYPVQADDIATYYCQQNRESPWTFGGGTKLELNR

Kd (rhesus IL-13 [13]): 0.11 nM | Kd (cynomolgus IL-13 [14]): 0.19 nM | Kd (human IL-13 wild type [15]): 0.24 nM | Potency (IC50), A-549 bioassay (rhesus IL-13 [16]): 0.14 nM | Potency (IC50), A-549 bioassay (cynomolgus IL-13 [17]): 0.46 nM | Potency (IC50), A-549 bioassay (human IL-13 wild type [18]): 0.15 nM
B6: 13C5.5L3F (antibody, V domains shown)
VH: B4 VH
VL: B4 VL with M53K, K54L, P55H, R56S
notes: The heavy chain row is printed 'VH 13C5.5L2F'
